# Measurements as given in patent US7465787.
# Biological target: biotinylated soluble single-chain Vb8-Va3 TCR (mouse)
# Experiment: flow cytometry titration of whole yeast cells with biotinylated scTCR, Scatchard analysis; assumes 100% active scTCR
substance,measurement,value
wt scFv-KJ16 displayed on yeast as Aga2p-HA-scFv-KJ16-c-myc fusion (from UniProt P32781 19-87),Kd,0.5 µM
